Results from patent publication US12084522B2, “Peptides, combination of peptides, and cell based medicaments for use in immunotherapy against urinary bladder cancer and other cancers” (Immatics Biotechnologies GmbH, priority 2016, dated 2024).

molecular target: HLA-A*02:01 (Homo sapiens, UniProt P04439, D140Y/D185E/D98H/E176V/E277Q/G131W/G231S/I119V/I121R/I166T/I218V/L300P/L318F/N151K/N90K/P208A/P217A/Q86G/Q94H/R138H/R169H/T345S); experiment: MHC binding assay (UV-ligand exchange, β2m ELISA, peptide exchange yield); conditions: binding to HLA-A*02:01 ranged by peptide exchange yield (UV-ligand exchange, β2m ELISA)
Excerpt: Candidate peptides for T cell based therapies according to the present invention were further tested for their MHC binding capacity (affinity). The individual peptide-MHC complexes were produced by UV-ligand exchange, where a UV-sensitive peptide is cleaved upon UV-irradiation, and exchanged with the peptide of interest as analyzed. Only peptide candidates that can effectively bind and stabilize the peptide-receptive MHC molecules prevent dissociation of the MHC complexes. To determine the yield of the exchange reaction, an ELISA was performed based on the detection of the light chain (β2 m) of stabilized MHC complexes. The assay was performed as generally described in Rodenko et al. (Rodenko et al., 2006).
96 well MAXISorp plates (NUNC) were coated over night with 2 μg/ml streptavidin in PBS at room temperature, washed 4× and blocked forth at 37° C. in 2% BSA containing blocking buffer. Refolded HLA-A*02:01/MLA-001 monomers served as standards, covering the range of 15-500 ng/ml. Peptide-MHC monomers of the UV-exchange reaction were diluted 100 fold in blocking buffer. Samples were incubated for 1 h at 37° C., washed four times, incubated with 2 ug/ml HRP conjugated anti-β2 m for 1 h at 37° C., washed again and detected with TMB solution that is stopped with […]. Absorption was measured at 450 nm. Candidate peptides that show a high exchange yield (preferably higher than 50%, most preferred higher than 75%) are generally preferred for a generation and production of antibodies or fragments thereof, and/or T cell receptors or fragments thereof, as they show sufficient avidity to the MHC molecules and prevent dissociation of the MHC complexes.

| Substance | Peptide exchange |
| --- | --- |
| 100 (SLQSFIHGV; listed as Homo sapiens) [compound 100] | +++ (>50 = +++) |
| 101 (ILDEMRAQL; listed as Homo sapiens) [compound 101] | +++ (>50 = +++) |
| 102 (GLYEGLDWL; listed as Homo sapiens) [compound 102] | +++ (>50 = +++) |
| 103 (GLYSGEVLV; listed as Homo sapiens) [compound 103] | ++++ (>75% = ++++) |
| 105 (TLFPSKIGV; listed as Homo sapiens) [compound 105] | +++ (>50 = +++) |
| 106 (ILLDTPLFL; listed as Homo sapiens) [compound 106] | +++ (>50 = +++) |
| 107 (LTLAKLEKV; listed as Homo sapiens) [compound 107] | ++ (>20% = ++) |
| 108 (YLDPNQRDL; listed as Homo sapiens) [compound 108] | +++ (>50 = +++) |
| 109 (RLIDDMVAQA; listed as Homo sapiens) [compound 109] | +++ (>50 = +++) |
| 110 (VLFNIDGQGNHV; listed as Homo sapiens) [compound 110] | +++ (>50 = +++) |
| 112 (YLDPSLNSL; listed as Homo sapiens) [compound 112] | +++ (>50 = +++) |
| 113 (FVFEPPPGV; listed as Homo sapiens) [compound 113] | ++++ (>75% = ++++) |
| 115 (SLLDFERSL; listed as Homo sapiens) [compound 115] | +++ (>50 = +++) |
| 116 (QLAWFDTDL; listed as Homo sapiens) [compound 116] | +++ (>50 = +++) |
| 117 (YMLDIFHEVL; listed as Homo sapiens) [compound 117] | +++ (>50 = +++) |
| 118 (RLLDFPTLLV; listed as Homo sapiens) [compound 118] | +++ (>50 = +++) |
| 119 (SLDEKQNLV; listed as Homo sapiens) [compound 119] | +++ (>50 = +++) |
| 120 (IIIPEIQKV; listed as Homo sapiens) [compound 120] | +++ (>50 = +++) |
| 121 (QLQGYLRSV; listed as Homo sapiens) [compound 121] | +++ (>50 = +++) |
| 122 (ILEPSLYTV; listed as Homo sapiens) [compound 122] | ++++ (>75% = ++++) |
| 123 (NLAGVYSEV; listed as Homo sapiens) [compound 123] | ++++ (>75% = ++++) |

| Substance | Peptide exchange |
| --- | --- |
| 124 (QIDGTLSTI; listed as Homo sapiens) [compound 124] | +++ (>50 = +++) |
| 127 (KLNATNIEL; listed as Homo sapiens) [compound 127] | +++ (>50 = +++) |
| 128 (KLWGQSIQL; listed as Homo sapiens) [compound 128] | ++++ (>75% = ++++) |
| 129 (YLEPKLTQV; listed as Homo sapiens) [compound 129] | +++ (>50 = +++) |
| 130 (TLTSKLYSL; listed as Homo sapiens) [compound 130] | ++++ (>75% = ++++) |
| 131 (ILTSIQSLL; listed as Homo sapiens) [compound 131] | ++++ (>75% = ++++) |
| 132 (YILEGEPGKV; listed as Homo sapiens) [compound 132] | ++++ (>75% = ++++) |
| 133 (GLDPLGYEIQL; listed as Homo sapiens) [compound 133] | ++++ (>75% = ++++) |
| 134 (IVAPGTFEV; listed as Homo sapiens) [compound 134] | +++ (>50 = +++) |
| 135 (FLLPLIIVL; listed as Homo sapiens) [compound 135] | +++ (>50 = +++) |
| 136 (GLSEPIFQL; listed as Homo sapiens) [compound 136] | +++ (>50 = +++) |
| 137 (ALFPHLLQPVL; listed as Homo sapiens) [compound 137] | ++++ (>75% = ++++) |
| 138 (YLTNEGIQYL; listed as Homo sapiens) [compound 138] | +++ (>50 = +++) |
| 139 (LLYPTEITV; listed as Homo sapiens) [compound 139] | +++ (>50 = +++) |
| 140 (ALLDGRVQL; listed as Homo sapiens) [compound 140] | ++++ (>75% = ++++) |
| 141 (SMFGAGLTV; listed as Homo sapiens) [compound 141] | ++++ (>75% = ++++) |
| 142 (FLGENISNFL; listed as Homo sapiens) [compound 142] | +++ (>50 = +++) |
| 143 (TLVTGLASV; listed as Homo sapiens) [compound 143] | +++ (>50 = +++) |
| 144 (YLAGEAPTL; listed as Homo sapiens) [compound 144] | +++ (>50 = +++) |
| 145 (ALYPGQLVQL; listed as Homo sapiens) [compound 145] | +++ (>50 = +++) |
| 147 (QMLELITRL; listed as Homo sapiens) [compound 147] | +++ (>50 = +++) |
